We go through three substances from PMC4970725.

Assay [1] addresses IL-18 receptor on NK-92MI cells (human (endogenous in NK-92MI)) (UniProt Q13478).
In assay [2] the target is IL-18 (Homo sapiens) (UniProt Q14116). The note with it: cited from earlier work.
Chain of IL-18 (Homo sapiens) (Q14116 37-193): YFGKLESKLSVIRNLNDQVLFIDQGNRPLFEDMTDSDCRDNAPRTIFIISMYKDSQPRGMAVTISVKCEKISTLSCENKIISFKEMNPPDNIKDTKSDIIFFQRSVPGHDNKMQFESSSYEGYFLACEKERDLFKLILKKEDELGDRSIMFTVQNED

Chain of IL-18 receptor on NK-92MI cells (human (endogenous in NK-92MI)) (Q13478 19-541, chain 1 of 2): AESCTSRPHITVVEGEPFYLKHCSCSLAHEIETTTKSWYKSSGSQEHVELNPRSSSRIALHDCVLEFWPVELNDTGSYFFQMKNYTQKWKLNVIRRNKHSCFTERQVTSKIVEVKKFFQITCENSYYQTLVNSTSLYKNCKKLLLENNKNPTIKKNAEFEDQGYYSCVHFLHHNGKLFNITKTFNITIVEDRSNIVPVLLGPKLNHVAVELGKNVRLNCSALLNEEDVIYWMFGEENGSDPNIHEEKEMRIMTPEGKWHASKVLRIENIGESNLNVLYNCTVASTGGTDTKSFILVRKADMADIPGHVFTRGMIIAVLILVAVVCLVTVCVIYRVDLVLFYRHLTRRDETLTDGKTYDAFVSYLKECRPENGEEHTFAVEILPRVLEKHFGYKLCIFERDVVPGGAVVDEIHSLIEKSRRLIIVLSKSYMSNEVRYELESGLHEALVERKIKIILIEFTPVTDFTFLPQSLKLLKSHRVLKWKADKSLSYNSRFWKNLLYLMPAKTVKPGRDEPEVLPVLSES
Chain of IL-18 receptor on NK-92MI cells (human (endogenous in NK-92MI)) (O95256 20-599, chain 2 of 2, further chain): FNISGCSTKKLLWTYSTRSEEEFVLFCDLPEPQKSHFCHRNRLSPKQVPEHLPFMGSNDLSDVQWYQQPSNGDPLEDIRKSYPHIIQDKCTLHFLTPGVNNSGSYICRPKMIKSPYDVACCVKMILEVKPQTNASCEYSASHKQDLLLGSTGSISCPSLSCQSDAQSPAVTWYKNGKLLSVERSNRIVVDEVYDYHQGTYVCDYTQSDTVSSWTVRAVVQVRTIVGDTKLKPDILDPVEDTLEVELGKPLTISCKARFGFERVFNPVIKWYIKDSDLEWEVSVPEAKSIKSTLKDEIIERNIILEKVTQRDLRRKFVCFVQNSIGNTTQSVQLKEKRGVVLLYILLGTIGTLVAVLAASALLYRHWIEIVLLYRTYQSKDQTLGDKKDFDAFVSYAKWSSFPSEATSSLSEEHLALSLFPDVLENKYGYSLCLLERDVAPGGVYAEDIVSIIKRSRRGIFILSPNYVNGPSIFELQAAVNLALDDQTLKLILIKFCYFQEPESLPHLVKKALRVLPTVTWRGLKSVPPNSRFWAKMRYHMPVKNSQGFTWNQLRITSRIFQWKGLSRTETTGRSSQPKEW
Chain of IL-18BP (O95998 31-194): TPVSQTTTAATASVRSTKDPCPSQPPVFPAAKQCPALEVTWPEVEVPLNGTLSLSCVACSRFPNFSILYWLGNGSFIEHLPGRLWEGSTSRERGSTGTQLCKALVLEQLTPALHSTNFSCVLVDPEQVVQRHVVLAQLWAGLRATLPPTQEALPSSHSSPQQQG

In assay [1], “recombinant mature human interleukin-18 T63A (ligand)” displayed an IFN-γ in the supernatant (ELISA) of NK-92MI cells stimulated with 0.5 ng/ml IL-12 and 12.5-200 ng mL^-1 IL-18; activity against wild-type IL-18 at 200 ng mL^-1 (times higher than wild-type IL-18) of 3.9.
Regarding IL-18BP (from UniProt O95998), in assay [2], the Kd (usually the concentration at which binding is half-saturated) was 400 pM.
In assay [1], “recombinant mature human interleukin-18 E6K (ligand)” displayed an IFN-γ in the supernatant (ELISA) of NK-92MI cells stimulated with 0.5 ng/ml IL-12 and 12.5-200 ng mL^-1 IL-18; activity against wild-type IL-18 at 200 ng mL^-1 (times higher than wild-type IL-18) of 9.3.
